From patent US20150266974A1 (RINAT NEUROSCIENCE, published 2015) come the findings set out here.

Bounds are passed on as bounds.

For assay [1], the target named is T1, PCSK9 (species not stated, Table 7 assay) (Pan troglodytes (Chimpanzee); Homo …, UniProt A8T644 31-152; Q8NBP7 153-692).
T1 construct: kept apart from m1 and m2
Nature of the assay: SPR Biacore 2000, IgG on anti-human Fc, PCSK9 injected, pH 7.4. The method, then:
(§1) Affinity and kinetic parameters for PCSK9 antibodies h5A10 and 5L1721H23_{—}6L3H3 as well as PCSK9 antibody H1M300N (see US2010/0166768, e.g., at Table 7). All experiments were performed on a Biacore 2000 biosensor.
(§2) An anti-human Fc sensor chip was prepared by activating all flow cells of a Biacore CM4 sensor chip with a 1:1 (v/v) mixture of 400 mM EDC and 100 mM NHS for 7 minutes, at a flow rate of 10 μL/min. An anti-human Fc reagent (Goat F(AB′)2 Fragment to Human IgG Fc, Cappel Catalog #: 55053) was diluted to 60 μg/mL in 10 mM Sodium Acetate pH 5.0 and injected on all flow cells for 7 minutes at 20 μL/min. All flow cells were blocked with 100 mM ethylenediamine in 150 mM Borate buffer pH 8.5 for 7 minutes at 10 μL/min.
(§3) The experiments were performed at pH 6.0 and 7.4 using sample and running buffers of 10 mM Sodium Phosphate, 150 mM Sodium Chloride, 0.05% Tween-20, pH 6 and 10 mM Sodium Phosphate, 150 mM Sodium Chloride, 0.05% Tween-20, pH 7.4, respectively.
(In SPR one partner is held on a chip, and binding of the other changes the refractive index at the surface.)

For assay [2], the target named is T1, PCSK9 (species not stated, Table 7 …). Nature of the assay: SPR Biacore 2000, IgG on anti-human Fc, PCSK9 injected, pH 6.0. The protocol: as §1, §2, §3
Assay [3] has as its target T2, human IgE-Fc (Ch2-Ch3-Ch4), minimally biotinylated (human, UniProt P01854-1 105-428, limits assumed, minimally biotinylated with EZ-Link NHS-LC-LC-biotin (sites not given)).
T2 construct: domain: Ch2-Ch3-Ch4; Captured on NeutrAvidin chip; also called IgE construct; B-IgE
Nature of the assay: SPR Biacore T200, KD at pH 6.0 over KD at pH 7.4. The method, then:
(§4) All Biacore experiments were performed using two of the four flow cells (1&2 or 3&4) of the sensor chip in parallel. The downstream flow cell was used as analysis flow cell while the other flow cell was used as a reference surface. Thus, biotinylated IgE (B-IgE) was captured on the analysis flow cell and every purified Fab fragment was injected over both. The sensorgram from the reference flow cell was subtracted from that of the analysis flow cell.
(§5) Following capture of B-IgE, a purified Fab fragment was injected at 30 μL/min on analysis and reference flow cells in a series of injections from low to high concentration. The top concentration of Fab ranged from 30 nM to 200 nM and the dilution factor was 3-fold. Each Fab dilution was injected for 2 minutes, followed by a final dissociation time of 30 minutes after the last injection. A similar set of injections was performed with running buffer in place of Fab for double-referencing purposes (double-referencing as described in Myszka, J Mol Recognit 12: 279-284, 1999). The double-referenced sensorgrams were fit globally to a simple 1:1 Langmuir with mass transport binding model.
(§6) The experiments were performed at pH 6.0 and 7.4 using sample and running buffers of 10 mM Sodium Phosphate, 150 mM Sodium Chloride, 0.05% Tween-20, 1 mg/mL BSA, pH 6 and 10 mM Sodium Phosphate, 150 mM Sodium Chloride, 0.05% Tween-20, 1 mg/mL BSA, pH 7.4, respectively.

The target in assay [4] is T2, human IgE-Fc (Ch2-Ch3-Ch4), minimally …. Nature of the assay: SPR Biacore T200, kd at pH 6.0 over kd at pH 7.4. The method, then:
(§7) A biotin-capture surface was prepared by immobilization of NeutrAvidin: all flow cells of a Biacore CM4 sensor chip were activated with a 1:1 (v/v) mixture of 400 mM EDC and 100 mM NHS for 7 minutes, at a flow rate of 10 μL/min. NeutrAvidin (Pierce, product #: 31000) was diluted to 100 μg/mL in 10 mM Sodium Acetate pH 4.5 and injected on all flow cells for 7 minutes at 20 μL/min. All flow cells were blocked with 100 mM Ethylenediamine in 150 mM Borate buffer pH 8.5 for 7 minutes at 10 μL/min.
as §5, §6

For assay [5] the target is unchanged. Nature of the assay: SPR Biacore T200, biotin-IgE-Fc captured, Fab injected, 25 C, pH 6.0. The method, then: as §7, §5, §6
Assay [6] shares this target. Nature of the assay: SPR Biacore T200, biotin-IgE-Fc captured, Fab injected, 25 C, pH 7.4. The protocol:
as §4, §5, §6

T1 sequence (A8T644 31-152 limits assumed, chain 1 of 2): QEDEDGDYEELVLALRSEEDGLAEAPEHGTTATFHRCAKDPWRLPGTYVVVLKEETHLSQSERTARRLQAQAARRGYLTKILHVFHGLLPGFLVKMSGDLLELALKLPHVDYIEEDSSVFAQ
T1 sequence (A8T644 other isoform, or with tags, fused parts or gaps limits assumed, chain 2 of 2): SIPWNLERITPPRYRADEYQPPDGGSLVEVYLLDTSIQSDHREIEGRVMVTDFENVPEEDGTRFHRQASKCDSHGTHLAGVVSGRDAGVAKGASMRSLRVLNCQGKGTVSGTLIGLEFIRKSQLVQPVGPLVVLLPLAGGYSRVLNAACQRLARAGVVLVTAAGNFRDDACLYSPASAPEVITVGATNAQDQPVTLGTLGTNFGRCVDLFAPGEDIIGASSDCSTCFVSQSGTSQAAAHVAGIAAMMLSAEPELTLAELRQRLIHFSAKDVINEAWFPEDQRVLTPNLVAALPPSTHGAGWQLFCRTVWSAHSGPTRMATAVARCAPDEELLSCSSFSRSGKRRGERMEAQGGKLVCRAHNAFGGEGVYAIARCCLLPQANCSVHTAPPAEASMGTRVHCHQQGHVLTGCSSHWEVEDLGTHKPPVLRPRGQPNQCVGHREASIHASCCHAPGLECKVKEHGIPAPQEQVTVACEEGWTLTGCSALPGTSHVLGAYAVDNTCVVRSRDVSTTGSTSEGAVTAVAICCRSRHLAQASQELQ
T2 sequence (P01854 other isoform, or with tags, fused parts or gaps limits assumed): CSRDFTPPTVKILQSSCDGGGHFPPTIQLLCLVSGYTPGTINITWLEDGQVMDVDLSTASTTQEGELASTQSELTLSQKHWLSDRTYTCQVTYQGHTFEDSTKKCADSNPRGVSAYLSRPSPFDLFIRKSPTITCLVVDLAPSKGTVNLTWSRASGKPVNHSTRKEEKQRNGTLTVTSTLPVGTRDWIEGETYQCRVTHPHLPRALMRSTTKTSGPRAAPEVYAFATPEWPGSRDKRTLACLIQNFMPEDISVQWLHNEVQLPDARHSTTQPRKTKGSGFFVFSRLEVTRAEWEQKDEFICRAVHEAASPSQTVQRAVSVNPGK

B1: h5A10 (antibody, V domains shown)
VH: QVQLVQSGAEVKKPGASVKVSCKASGYTFTSYYMHWVRQAPGQGLEWMGEINPSGGRTNYNEKFKSRVTMTRDTSTSTVYMELSSLRSEDTAVYYCARERPLYAMDYWGQGTTVTVSS
VL: DIQMTQSPSSLSASVGDRVTITCKASQDVSTAVAWYQQKPGKAPKLLIYSASYRYTGVPSRFSGSGSGTDFTFTISSLQPEDIATYYCQQRYSTPRTFGQGTKLEIK
notes: In the histidine scan it was used as a Fab with a histidine tag at the C-terminus of CH1; also called 5A10 hu frame
By Kd is commonly meant the constant that tells how readily two partners part at equilibrium. Broadly, the koff is the first-order rate constant of dissociation. For orientation: kon means a measure of how fast the partners come together. Low values mean slow association, high ones fast association. B1: in assay [1], the Kd was < 0.249 nM, the koff is < 6e-05 s⁻¹, the kon is 241000 M⁻¹ s⁻¹ and the t1/2 is < 3.22 h. Also, in assay [2], the Kd was < 0.181 nM, the koff was < 6e-05 s⁻¹, the kon came to 331000 M⁻¹ s⁻¹ and the t1/2 is < 3.22 h.

B2: anti-IgE antibody 5.948-H100Y (Fab) (Fab, V domains shown)
VH: QVQLVQSGAEVKKPGASVKVSCKASGYTFTSYDINWVRQATGQGLEWMGWMDPNSGNTGYAQKFQGRVTMTRNTSISTAYMELSSLRSEDTAVYYCARGYYDSDGYYSFSGMDVWGQGTTVTVSS
VL: not shown
notes: Injected as purified Fab fragment
As to B2, the “KD ratio pH 6.0/pH 7.4” value in assay [3] came to 3.1. In addition, the “kd ratio pH 6/pH 7.4” value in assay [4] was 3.03. In assay [5], this molecule gave a Kd of 0.149 nM, a koff of 0.000152 s⁻¹ and a kon of 1.02e+06 M⁻¹ s⁻¹. In assay [6], this molecule registered a Kd of 0.0487 nM, a koff of 5.01e-05 s⁻¹ and a kon of 1.03e+06 M⁻¹ s⁻¹.

B3: L38H312H100Y (Fab) (Fab, V domains shown)
VH: QVQLVQSGAEVKKPGASVKVSCKASGYTFTSYDINWVRQATGQGLEWMGWMDPNSGNTGYAQKFQGRVTMTRNTSISTAYMELSSLRSEDTAVYYCARGYYDSDGYYSFHGMDVWGQGTTVTVSS
VL: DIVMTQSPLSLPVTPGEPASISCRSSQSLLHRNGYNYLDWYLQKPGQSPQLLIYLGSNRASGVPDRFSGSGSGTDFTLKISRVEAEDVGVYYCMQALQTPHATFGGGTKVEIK
Turning to B3, the “KD ratio pH 6.0/pH 7.4” value in assay [3] was found to be 7. Further, the “kd ratio pH 6/pH 7.4” value in assay [4] was 11.3. Moreover, in assay [5], the affinity, expressed as Kd, was 37.1 nM; the koff was found to be 0.0122 s⁻¹; the on-rate constant (kon) came to 329000 M⁻¹ s⁻¹. Moreover, in assay [6], the dissociation constant Kd was 5.33 nM, the off-rate constant (koff) came out at 0.00108 s⁻¹ and the kon is 202000 M⁻¹ s⁻¹.

B4: H25H100Y (Fab) (Fab, V domains shown)
VH: QVQLVQSGAEVKKPGASVKVSCKASGYTFTSYDINWVRQATGQGLEWMGWMDPHSGNTGYAQKFQGRVTMTRNTSISTAYMELSSLRSEDTAVYYCARGYYDSDGYYSFSGMDVWGQGTTVTVSS
VL: not shown
On to B4, for which, in assay [3], the “KD ratio pH 6.0/pH 7.4” value stood at 8. For the same molecule, the “kd ratio pH 6/pH 7.4” value in assay [4] is 7.66. Further, in assay [5], binding was put at a Kd of 5.08 nM, the koff amounted to 0.00151 s⁻¹ and the kon amounted to 298000 M⁻¹ s⁻¹. Moreover, in assay [6], the Kd amounted to 0.634 nM, the koff stood at 0.000197 s⁻¹ and the kon amounted to 311000 M⁻¹ s⁻¹.

B5: H17H25H100Y (Fab) (Fab, V domains shown)
VH: QVQLVQSGAEVKKPGASVKVSCKASGYTFTSHDINWVRQATGQGLEWMGWMDPHSGNTGYAQKFQGRVTMTRNTSISTAYMELSSLRSEDTAVYYCARGYYDSDGYYSFSGMDVWGQGTTVTVSS
VL: not shown
Consider B5, for which the “KD ratio pH 6.0/pH 7.4” value in assay [3] was 8.6. In addition, in assay [4], the “kd ratio pH 6/pH 7.4” value was determined as 8.63. In assay [5], this molecule registered a Kd of 16.3 nM, an off-rate constant (koff) of 0.00364 s⁻¹ and a kon of 223000 M⁻¹ s⁻¹. In addition, in assay [6], the Kd was determined as 1.9 nM, the off-rate constant (koff) came out at 0.000422 s⁻¹ and the kon amounted to 222000 M⁻¹ s⁻¹.
